The record followed here is the DeepSol protein solubility set.

A short description of the data set: soluble on expression in E. coli; label from the status in PepcDB or PDB records.
As to SLMDVKCETPNCPFFMSVNTQPLCHECSERRQKNQN, the “soluble on expression in E. coli” value is recorded as “soluble”.

Regarding “GPGSMERVTYARTGALRSTYAGLPVTKERLVTAAPAKWFPLLTTVPQRVLKSISDSDGVDGSLLGFLPIAFVFEELRKHLSDFTQHAAFLRAVLQWYHQTAGDTLESEIATDKVEIFQPYLPAYRLRVLKEGETVATFNDISRRAVTLMGKDRGINDIPLDHPSCSAQHAALEVNFVHRNSEPFQQRLHTLMQEEYRNINWSSPDEVGKLCAHALQLMREFGGDEDMWLMELQVVDLGSTNGTNLNGELLRPLERATVIEGDVLTFGYSTRKYLIVRA”, the “soluble on expression in E. coli” value was “soluble”.

Consider “MDLFCLGRDLQTRPQSKEALSAIILAPMEWDLSDLYSGPQDPRILQDLEAALALAQGLDPQGLLDPKGAQDLLERYEKALELAYKPLNYASLYFATRTQDPEAKALLDRVRSRFTEVRNRLVPLEVALRKLPEEAFQRLLAHPGLADLGHFLKRQRAYAPHTLSEREEELLNLKALVGRSAWSQFYTEYTGRFRFRVGERELTEMEVRALRRDPDPEVRREAHRALYGKLLAEAPTLSAVFNAVYLDYLQDLRLRGYRHPLEPVALRDEVEVREIEALLEATKAHYPLVERYYRWKAGRLGREKTPSEDLLAPLGEKPKVPFAEARALVLEAFRRFSPELAEIAREFFEKRWIDVYPRPGKRGGAFCSGGLPSTHPYILLNHTDDLDSAHTLAHELGHGVHFYLARKQRLLNFGASTPLAETASVFAEILLDDLLLERLSGEEKTLLLAERVEDAINTLFRQVMYTFFEQRSLEARKEAALSPEAFHALWDEEQRRLYGEAVAWTELDRAAWAGIPHFVHYRFYTYSYALGYLVVLALYGKYREEGEAFVPKYLRILEAGESASPKEILAEAGVELGSEAFFRYGFGVLESWLKALP”, for which the “soluble on expression in E. coli” value was “soluble”.

As for “MPGFSALSGGDKRQPEVNIGVVGHVDHGKTTLVQALTGVWTMRHSEEIRRGMTIKLGYADGEVWECEGCGFPERFSPEPVCECDPQASASLRRRVSYVDAPGHEILMATMLSGAALMDGALLVVAANEPCPQPQTKEHLVALEIIGIKNIVIVQNKVDVVSRERAKESYQEILNFIKGTIAEGSPIIPVSALKRANIDAVLAAIEKFIPTPPRDLDKPPVMYISRSFDVNRPGTPPERLVGGVVGGSIIQGVFRVGDEIEISPGVAVRKPGGRVEYVRLHTTITSLRFGSIEVEEARPGGLVAIGTQLDPSVTKADNLVGNVVGKPGELPEPLTTLRIEHHLLEKVVGMKEEARVEPIRRGEMLMLSVGTAITLGVVTRAGKDEIEVQLRRPVVTWPKARVALSRRIMGRWRLIGWGLIK”, the “soluble on expression in E. coli” value is reported as “soluble”.

“MALQNISQNDFALHVQKAEQKSFMQTLEMAKLLSKRGFTLNYIAWLENGTIEISAILYSMPMTGGRYFEINCGPVVTRDKHLTDFYRELKDYVKEKGALELVIKPYDTYQTFDGDGQATSAEKKELISQLTNLGYHFDGLQRDYPNGEPDWHYVKDLSDISEQTLLKSFSKKGRPLVKKAKTFGTKLRRLNRDELNLFKEITSATSDRREYSDKSLDYYQDFYDSFGNNAEFMIASLNFENYLSHLQRDQNKLGNKIAKLQADLEKNPHSEKKQNQLRELSSQFDTFTTRQEEAQKFITKYGKKDVILAGSLFVYTPQEAVYLFSGSYPEFNKFYAPALLQEHVMLEALKRGISFYNLLGITGHFDNSDGVLRFKQNFNGYIVRKMGTFHYYPNPLKYRLLNTIKKILRR”: the “soluble on expression in E. coli” value is given as “not soluble”.

In the case of “DDIKVAVVGAMSGPIAQWGDMEFNGARQAIKDINAKGGIKGDKLVGVEYDDACDPKQAVAVANKIVNDGIKYVIGHLCSSSTQPASDIYEDEGILMISPGATNPELTQRGYQHIMRTAGLDSSQGPTAAKYILETVKPQRIAIIHDKQQYGEGLARSVQDGLKAANANVVFFDGITAGEKDFSALIARLKKENIDFVYYGGYYPEMGQMLRQARSVGLKTQFMGPEGVGNASLSNIAGDAAEGMLVTMPKRYDQDPANQGIVDALKADKKDPSGPYVWITYAAVQSLATALERTGSDEPLALVKDLKANGANTVIGPLNWDEKGDLKGFDFGVFQWHADGSSTKAK”, the “soluble on expression in E. coli” value is recorded as “soluble”.

On to “MGSDKIHHHHHHMDLSSNRLAGKSILITRPLHQAGGLATWVRELGGEPWLFPVLEISDSENKQPLLDLIARLDEFDLAVFVSPNAVEKVIPLVQVSHSWPRHVLVATVGKGSARVLERYGITNVIVPEEGSDSEALLRMPQFQVMQGRHVVIFRGNDGRRLLGDTLRERGASVEYIECYRRHKPEADPLPLLKHWRDDGIQAVIISSSEGLDNLFDMIGETGQQLLKATPVFTAHERIERKARELGIRKIYRTLLGDEGTVQGLLEYFEKM”, for which the “soluble on expression in E. coli” value was “not soluble”.

For the sequence “MKLELSYSDHLQLSESLNELGQTTRITQLEPGEGKYTMSFKQSTGIALAEIQSTQPLLYEGWGTTWSVDFNWITPTCHLNDPFGYCEGYEMKETSLGGFNTLNTSPGNSWGKYSNNCSSTACMLDKNILMKMLKECNAAQAIDNLSKARGLDVSSESLYQLKKLTRKDLVRGIMNPTKYYDLIVACLEGGDKRGYRKGLTKNYRLLGEIVQLSHDSRRMSSPMTLSDVCQYLDTGQASLYRVCQDYFGMGIIEMMTQIRLEEARRALLMFKQNEKNHALTVRDVALGYGFKHQGRFSRRYFTSFGELPSQTLDRSQEL”, the “soluble on expression in E. coli” value is given as “not soluble”.

Take “MGSDKIHHHHHHMKNLFLYCRAGYEKDCAAEIQQRAAELGIGGFVKANRDDAYVVFQGFSPDDGDRLAKELPLDSLIFARQMFACGDLLDDFSPEDRVTPIAESLTEVERAGELRVETPDTNEAKELSAFCRKFTVPLRQALKKRGVLLDKESSRRPIVHVCFVAPNKAFTGYSLSNNSSPHFMGIPRLKFPADAPSRSTLKLDEAFIHFIPREEHETRLRSGLNAVDLGACPGGWTYQLVRRGMMVHAIDNGPMNHDLMETGQVTHHRADGFKFEPARRNIYWLVCDMVEKPARVAELMEYWAIQGWFKEAIFNLKLPMKSRYKEVSQILANMHAILKENGIHEFHLACKHLYHDRDEVTVHLWLRPSSPWI”: the “soluble on expression in E. coli” value was “not soluble”.

“METNRPSPDALLVNLQEEADSSVGKLKIYFGFAAGVGKTYAMLSDAKDQLAAGVDVVAGYIEPHAREETLRMLEGIPIIPPKAINHKNIALKEFDLDEALKRKPELILVDELAHTNASGVRNKKRFQDVEELLQAGIDVYTTVNVQHIESLNDIVEGITKVAVRETIPDYVFDEADRVKLIDIEPDELLKRLEQGKIYQPARAKTAMQNFFTRENLKLLREIAMRKAADRI”: the “soluble on expression in E. coli” value was “not soluble”.

“MSLTADKYTVAINENALKILGEIVFLMGASQNFAKYPVSFIINYLLPSIYLNQYRIYRTVKDNKPIGFACWAFINDQVEKELIENDINLSVEERNSGENIYVLYFIAPFGHAKQIVHDLKNNIFPNKIVKGLRLDKDGKKVLRVATYYEGHHHHHH”: the “soluble on expression in E. coli” value was “soluble”.

For “MKYTLDQLNVYNPDGKAKSISIIHGLTISTSNTNSDTTGLTGCLYLTTKNQANDPSFSVYVIKQAQTVSTTQPNSTVVILNTELNPDISNYDQPLKTSYVTNINQSPDSDLFFQWDIPASGWTQKDVTNQFFENPIILETFDWNTMKKNFTRQFFDHIEPLQIGVKYWYFTASKPVSMTMESKYVSNLMYTATSVNTTGLIVNDFVFLEHVVNFPLDLTRVRTIGTLISAFPESSTINFVYKDDQSSSRQSFSTEQTHSLFDTYMQASSLTINATALIPGRFFCQYFGVTGDLLPPGTSTPSTPSTVETTMPSTTRISTTPSAAPHEFQLICFIIAFLLVL”, the “soluble on expression in E. coli” value is reported as “not soluble”.

Regarding “MGSDKIHHHHHHMLYTENLQSLIDSGKGYNVEFKVRVPSKVRELTEEICAFANADGGYLLIGVDDNGQVVDTNLENDKRSAIQGSISEISPALHCELYSVNVGNKTVWVIDVPSGKDKPYIFSGSIYVREGANSQKLRTAEEMRSFFQECNKIFFDHIPCHWFNIYTDADEQMIKGFRTEAKLSPSTPDKQIFENLELFIENGTAKNGAAMFFGKQPERKFPHAVTRCVLFKGTNKVYIIDDKTFGGSLYQQYLQAMSWLESKLQVAYKIEGAGPREEIWEIPLTVFKEAIINALSHRDYYEQGASIMIEMFDDRVEISNPGGLLPVVAKDFGHKSMTRNPLIFGLFTRMHLVERVASGIPRMQEAMREANLPEPEFHTEGMFTVVFKRKNTNSANRDIVNGIINGIVNENEQTILNLLKAKPGLNASEVAESLSKSWRTTMRYLKSLNDKGLVEFRGAPKTGGYYLTRNI”, the “soluble on expression in E. coli” value is recorded as “not soluble”.

Turning to “MQSWYLLYCKRGQLQRAQEHLERQAVNCLAPMITLEKIVRGKRTAVSEPLFPNYLFVEFDPEVIHTTTISATRGVSHFVRFGASPAIVPSAVIHQLSVYKPKDIVDPAPPYPGDKVIITEGAFEGFQAIFTEPDGEARSMLLLNLINKEIKHSVKNTEFRKL”, the “soluble on expression in E. coli” value is on record as “not soluble”.
